A protein production outcome set (Wang et al. 2014)

test: label from the status in PepcDB records

Question: Which protein production does the source give for “MVPRFATLGRIPKGVWVLGGVSLLMDVSSEMIHSLLPLFMATTLGASVIIIGLIEGLAEATALILKVFSGAISDYVGKRKGLALLGYGLGALSKPLFAIAPTAGVVFSARMIDRVGKGIRGAPRDALVADVTPPEIRGAAYGLRQALDTVGAFLGPLLAVLLMFIWANDFHAIFWVAVIPAVLSILLLGFGLQEPKSAIAHKRSNPLKRENLKKLSAAYWWVVAIGSIFTLARFSEAFLVLRAQQMEIPLYTIPLVMVAMNLVYSLTAYPFGKLSDSMSHSKLLQWGLLVLILADIVLALSGHWSTLLIGVALWGIHMGMTQGLLAAMVAHTAPPELRGTAFGMFNLMSGLALLLASTGAGVLWETFGAASTFYAGAIICVVTLIGMRVMPSAYRQD” here?
Answer: not failed

Question: For “MVPSASDAWRTALRDLRETLPERTVQNWLDPIQPLDLSTDEGSPTLTLQVPTPFGIQYLRSRFQRSIRQAVSEAVGEPTDVTYQVAPEEERPDEIATDSGSSGSAPDEPDASSSPQDRPSSAPSSDQAGRSSTSPRPSEPVSSSSPAGREAINQSPSPDASTSGGASSPTGPTTPRPSSPDVADVSDAGRTDDASAPSPPQTDAGSPDERSALYEQAKQHLRPEYTFDEFVEGDGNRLARSAAFAVAQEPGSTNYNPLLVYGGVGLGKTHLAQAVANYALEHNTAERVLYVSSDRFTSQFVQSVRENRIAAFSSYYRQADLLIVDDVQFFGEKEKTQEEFFHIFNDLHQNGKQIFLCADRPPAEIPGIEERLLSRFQWGLSADIQRPDLETRIAILQRKAARQDIAVSPDVLELIAQRIDSNVRQLEGALTRLTALVQLDDRTLDLDTARRFLREHTDEGADALNADDIIEQVAEYFRLEKGDLLSRSRKQTVAQARQIAMYLCRELTDESYDHIGSRFGGRDHSTVIHAYRKIEEDLESDTELQDDISSLQSNLQDRSLSSSL”, which protein production is on record?
Answer: failed

Question: With “MVPSTFSRLKAARCLPVVLAALIFVGCGTHTPDQSTAYMQGTAQADSAFYLQQMQQSSDDTRINWQLLAIRALVKEGKTGQAVELFNQLPQELNDSQRREKTLLAVEIKLAQKDFAGAQNLLAKITPADLEQNQQARYWQAKIDASQGRPSIDLLRALIAQEPLLGAKEKQQNIDATWQALSSMTQEQANTLVINADENILQGWLDLQRVWFDNRNDPDMMKAGIADWQKRYPNNPGAKMLPTQLVNVKAFKPASTNKIALLLPLNGQAAVFGRTIQQGFEAAKNIGTQPVAAQVAAAPAADVAEQPQPQTADGVASPAQASVSDLTGDQPAAQPVPVSAPATSTAAVSAPANPSAELKIYDTSSQPLSQILSQVQQDGASIVVGPLLKNNVEELLKSNTPLNVLALNQPENIENRVNICYFALSPEDEARDAARHIRDQGKQAPLVLIPRSSLGDRVANAFAQEWQKLGGGTVLQQKFGSTSELRAGVNGGSGIALTGTPITPRATTDSGMTTNNPTLQTTPTDDQFTNNGGRVDAVYIVATPGEIAFIKPMIAMRNGSQSGATLYASSRSAQGTAGPDFRLEMEGLQYSEIPMLAGGNLPLMQQALSAVNNDYSLARMYAMGVDAWSLANHFSQMRQVQGFEINGNTGSLTANPDCVINRKLSWLQYQQGQVVPAS” as the sequence, how does the protein production read?
Answer: not failed

Question: Which protein production does the source give for “MVQEEASCELAPREKKLSIRGAIVKLGNPGFPDASARSLPLNLERLRPGGGGCPQSGSQTLWCSSSLAECSHAEVTSSEGSPRTLGLRGESRDFPVISREGASKAGGGRSGRGQRLPRGSPAGLAGLWLLLLQIARLMARQRTVAGIGPGALLALRALLVAAHPQCLDFRPPFRPPQPLSFCAQYSAFGCCTAEQDAALARRFRALETRMDAGVWATCAGYALDLLCQECSPYAAHLYDAEDPATPLRTVPGLCEDYCLDMWQTCRGLFRHLSPDRELWALESNRAKLCRYLSLDDTDYCFPSLLVNENLNSNLGRVVADAKGCLQLCLEEVANGLRNPVAMVHAGDGSHRFFVAEQVGLVWTYLPDRSRLEKPFLNVSQAVLTSPWEGDERGFLGLAFHPRFPHPSKLYVYYSVGVGFREWIRISEFRISEDDENTVDHGSERIILEIEEPASNHNGGQLLFGDDGFLYIFTGDGGMAGDPFGKFGNAQNKSALLGKVLRIDVDRKERGLPYGIPLDNPFVDDPEARPEVYALGVRNMWRCSFDRGDPVSGTHRGRLFCGDVGQNKYEEVDLVERGRNYGWRAREGFECYDRKLCANASLDDVLPIFAYPHKLGKSVTGGYVYRGCEYPNLNGLYIFGDFMSGRLMSLRENPESGQWKYSEVCMGRGQTCAFPGLINNYYPYIISFAEDEAGELYFMSTGVPSATAARGVIYKVTDPSRRAPPGKCKIRPAQVKVKSHLIPFVPKEKFIRTSESTPRPTARAPTKAPRRRRPTAAPPAPTLRPTKPARPTRRPGARKGGGRRRGRPGTAVPEPQNGSVRLVRPSGLSPGRGRVEVFIGGRWGTVCDDGWDIKAAAVVCRQLGFAHAVRAAKRAEFGEGRALRILLDDVRCAGSERNLLECAHAGVGTHNCKHEEDAGVECSHEDPDL” here?
Answer: failed
